The record followed here is the supplement of paper PMC10567573.

± gives the standard deviation.

This data set can be described thus: protein stability index of a GFP-peptide fusion (GPS, HEK-293T) (PSI 1-6); higher = more stable.
Where [1] appears, read: treatment: DMSO, c terminus: a fixed tail appended.
Where [2] appears, read: treatment: MLN4924 1 uM, 8 h, c terminus: a fixed tail appended.
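Note: 24-mer peptide tiles fused after GFP, lentivirally expressed, FACS-sorted into six equal bins by GFP/DsRed ratio, decoded by Illumina sequencing, PSI is the read-weighted mean bin number.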

For EEERDEEEDKRRKGEEVTPISAIR [EPB41L3], the protein stability index is, setting by setting: under setting [1], 5.59 ± 0.28; under setting [2], 5.66 ± 0.21.
In the case of EEPENGEPTAAATARRSKRERREE [PWWP2B], the protein stability index under setting [1] is 5.63 ± 0.29 and the protein stability index under setting [2] amounted to 5.8 ± 0.14.
On to EERALLLGRMGKHEQALFIYVHIL [VPS39], for which the protein stability index came to 2.96 ± 0.41 under setting [1] and 2.68 ± 0.51 under setting [2].
The matching figures for EETVTMLEDVERELDGPKQIFFGR [ZNF396]: 4.5 ± 0.14 and 4.49 ± 0.26.
EEVSTLNAQIPELKSDLEKASALN [CD207]: the protein stability index reads like this: under setting [1], 5.08 ± 0.19; under setting [2], 5.24 ± 0.17.
Consider EEYSQIIYSTKLYRFFKYIENRDV [BTBD10], for which the protein stability index turned out to be 1.64 ± 0.19 under setting [1] and 1.87 ± 0.4 under setting [2].
The matching figures for EFDSPHEDIVFETDHILESLYRDI [STX11]: 3.59 ± 0.38 and 3.58 ± 0.25.
For EFSIDNYPTDNTKVMIFKSSYSLS [MIA2] the same measures were 2.75 ± 0.64 and 2.48 ± 0.3.
For EFVTLKAIALANSDSMHIEDVEAV [ESRRG] the same measures were 3.39 ± 0.38 and 3.31 ± 0.29.
On to EGHHHDVVACDFSPDGALLATASY [WSB1], for which the protein stability index turned out to be 3.9 ± 0.23 under setting [1] and 4.03 ± 0.18 under setting [2].
For EGMDFHRFYFENLLAKNSKPIHTT [CAMK2B] the same measures were 2.52 ± 0.36 and 2.49 ± 0.31.
For EGPGEQETKLDLISKGEEPRAGKE [SLC29A1] the same measures were 5.68 ± 0.21 and 5.43 ± 0.21.
With EGRKKAFSTCGSHLTVVAIFYGSG [OR3A1], the protein stability index worked out at 2.77 ± 0.4 under setting [1] and 3.15 ± 0.38 under setting [2].
Turning to EGSSQEDEDLGLSEGSSQDSGED [SPANXN3], the protein stability index was 5.55 ± 0.24 (treatment: DMSO, c terminus: native) and 5.56 ± 0.19 (treatment: MLN4924 1 uM, 8 h, c terminus: native).
Consider EGYAHLTHLLMGLASGRIILILEG [HDAC6], for which the protein stability index was determined as 2.91 ± 0.56 under setting [1] and 3.09 ± 0.041 under setting [2].
The matching figures for EGYTWRVAQLEDRRSTTDLRGTQF [ZSWIM9]: 3.37 ± 0.55 and 3.28 ± 0.24.
For EHDFLDRDAIEALCRRLNTLNKCA [DLC1] the same measures were 2.73 ± 0.36 and 2.73 ± 0.49.
For EIERAIKQTQCPADPLQLNKALSI [FEM1C] the same measures were 3.42 ± 0.44 and 3.28 ± 0.16.
For the sequence EKGILTTEKQNFLLFDMTTHPVTN [GOLPH3L], the protein stability index runs as follows: under setting [1], 3.69 ± 0.32; under setting [2], 3.61 ± 0.27.
The matching figures for EKKLFECLTCGKSFRQGMHLTRHQ [ZNF263]: 2.1 ± 0.41 and 2.27 ± 0.19.
The matching figures for EKTFWKEEKSFWEMEKSFREEEKT [CCDC70]: 4.62 ± 0.23 and 4.82 ± 0.26.
For EKYGAVREVILKELAEATWCGIST [ZBED1] the same measures were 2.97 ± 0.36 and 2.68 ± 0.35.
On to ELMKCQIIYPRQQLLTLRELEMIG [TRIP13], for which the protein stability index came out at 2.33 ± 0.47 under setting [1] and 2.02 ± 0.53 under setting [2].
Consider ELNKKMTNIRLPNVPSSSLPAQPN [CHMP4C], for which the protein stability index is 3.66 ± 0.4 under setting [1] and 3.63 ± 0.18 under setting [2].
For ELNKQVVSSSEQLQSYQAEIIELR [KRT33B] the same measures were 3.76 ± 0.3 and 3.99 ± 0.34.
Regarding ELRPRRGRCGPQAARAAGRDVAAE [POMT2], the protein stability index under setting [1] is 3.58 ± 0.37 and the protein stability index under setting [2] stood at 3.67 ± 0.086.
The matching figures for ELVSVEDLLKFEKKFQSEKAAGSV [FIS1]: 3.58 ± 0.3 and 4.07 ± 0.35.
For EMEVMRRQLYAVNRRLRALEEQGA [FATE1] the same measures were 3.65 ± 0.29 and 3.68 ± 0.41.
The matching figures for ENHSMYCVQCKMPVCYQCLEEGKH [TRIM9]: 4.07 ± 0.2 and 4.36 ± 0.41.
EPSSPASLTDSVNHHSPGGSSDAS [ESRRG] yielded a protein stability index under setting [1] of 5.47 ± 0.15 and a protein stability index under setting [2] of 5.51 ± 0.15.
The matching figures for EQLLDVKLALDMEISAYRKLLQGE [LMNB1]: 3.02 ± 0.45 and 3.13 ± 0.55.
For ERCLSCILAQQPDRLRDEELAELE [TRADD] the same measures were 4.41 ± 0.39 and 4.19 ± 0.51.
For ERPERRSGPPASYCAKLCEPQWFY [C8orf76] the same measures were 2.46 ± 0.26 and 2.54 ± 0.32.
As for ERYMCSRFFIDFPHIEEQQKKIES [TENT5D], the protein stability index by setting is: under setting [1], 3.21 ± 0.3; under setting [2], 3.23 ± 0.16.
The matching figures for ESGKSTIVKQMKIIHEAGYSEEEC [GNAI1]: 5.16 ± 0.18 and 4.85 ± 0.13.
For ESILMSLPLTARWEYMHSPSENSK [CPOX] the same measures were 3.45 ± 0.57 and 3.93 ± 0.33.
As to ESLRPLVQTPPGGSEVVPVISPMY [IKZF1], the protein stability index under setting [2] is 3.72 ± 0.71.
Take ETALYRKMLGNPSRLPAKCPGKGA [FKBP8]: the protein stability index runs as follows: under setting [1], 3.61 ± 0.31; under setting [2], 3.62 ± 0.3.
The matching figures for ETDVWFSKQRKDFEGMAFLETEQG [GMCL1]: 4.12 ± 0.62 and 4.45 ± 0.16.
For ETLSGDRVRLDSELRNVQDVVEDY [KRT71] the same measures were 5.16 ± 0.19 and 5.36 ± 0.18.
For ETYMSADDLRINLWHLAITDRSFN [PPP2R2C] the same measures were 2.23 ± 0.32 and 2.36 ± 0.29.
EVLLASLANPVLESTPVGTVVGLF [PCDHGC5]: the protein stability index is, setting by setting: under setting [1], 2.53 ± 0.51; under setting [2], 2.33 ± 0.43.
For EVNVLNDMRDTPLHRAAFTGRKIC [OSBPL1A] the same measures were 3.19 ± 0.089 and 3.26 ± 0.31.
Regarding EVSHPFLIRLFWTWHDERFLYMLM [PRKX], the protein stability index is, setting by setting: under setting [1], 2.24 ± 0.55; under setting [2], 2.14 ± 0.19.
As for FARFCKSQESALGNTVPAVEPGTP [DNAAF3], the protein stability index runs as follows: under setting [1], 3.63 ± 0.25; under setting [2], 3.58 ± 0.21.
For FDFERSGLQHAPEPDAADGPYDPN [SMAD6] the same measures were 5.37 ± 0.29 and 5.5 ± 0.41.
Regarding FDVHPPLGKMLIGLAGYLSGYDGT [POMT2], the protein stability index by setting is: under setting [1], 2.18 ± 0.19; under setting [2], 2.17 ± 0.13.
The matching figures for FETQMKTLAQFPETLLGDPEKRTQ [KCNA4]: 4.79 ± 0.16 and 4.84 ± 0.21.
As for FFHCYCPVGFGRRTDPNGDYIRRY [CRY1], the protein stability index is, setting by setting: under setting [1], 2.4 ± 0.048; under setting [2], 2.34 ± 0.42.
For the sequence FFLKHPDKDVRLLVACCLADIFRI [PDS5B], the protein stability index stood at 2.95 ± 0.81 under setting [1] and 2.75 ± 0.17 under setting [2].
The matching figures for FFTVEFGLCKQDGQLRVFGAGLLS [TPH1]: 2.73 ± 0.57 and 3.09 ± 1.2.
The matching figures for FGFAQILIPGDAYTDYVATRWYRA [CDKL4]: 2.31 ± 0.58 and 2.84 ± 0.76.
The matching figures for FGLAIEVEGEQQAWFGFAGTPGYL [CAMK2A]: 2.68 ± 0.92 and 2.92 ± 0.65.
With FIDKEDLKDTYASLGKTNVKDDEL [MYL5], the protein stability index stood at 4.8 ± 0.15 under setting [1] and 4.92 ± 0.19 under setting [2].
Take FIMDSCDELIPEYLNFIRGVVDSE [HSP90AB1]: the protein stability index amounted to 2.37 ± 0.13 under setting [1] and 2.32 ± 0.32 under setting [2].
The matching figures for FKSFQYPLPWSECPVVRNGSVAVV [SLC6A17]: 2.07 ± 0.29 and 2.09 ± 0.56.
Regarding FLKKSQLTEHKRIHTGKKPHVCSL [ZNF649], the protein stability index turned out to be 2.76 ± 0.36 under setting [1] and 2.75 ± 0.36 under setting [2].
For FLLKFLLVGDSDVGKGEILASLQD [RAB40B] the same measures were 3.52 ± 0.49 and 1.86 ± 0.28.
For FLQVLEPGARGLWKPPDIKGKLMV [SPAG8] the same measures were 2.38 ± 0.34 and 2.26 ± 0.32.
The matching figures for FLQYYYQSGCLYRLRALGERHTMD [TMEM120A]: 2.46 ± 0.47 and 2.35 ± 0.38.
As for FLSLACARGSIVATYIFIFIGETL [SPNS1], the protein stability index runs as follows: under setting [1], 2.72 ± 0.2; under setting [2], 2.92 ± 0.71.
For FMPAMQFSIPPWRYDAEVVAIAQK [MYORG] the same measures were 2.33 ± 0.22 and 2.52 ± 0.18.
Take FPAVTVEVKSSIAGSSTWERYFIP [SLC29A1]: the protein stability index under setting [1] was 2.61 ± 0.88 and the protein stability index under setting [2] came to 2.4 ± 0.28.
Take FPRDAVQIEEVFISEEIQMSTKES [MIA2]: the protein stability index reads like this: under setting [1], 4.56 ± 0.17; under setting [2], 4.5 ± 0.2.
The matching figures for FQMVLEGGVCCTVTLNFNVPGEFK [GFOD1]: 3.1 ± 0.41 and 3.14 ± 0.31.
In the case of FRKDSVLNILIQSLDWETFEQYCA [INTS3], the protein stability index by setting is: under setting [1], 2.51 ± 0.61; under setting [2], 2.04 ± 0.18.
With FRPKDQTSVGMSFVAGGISGTVAA [SLC25A39], the protein stability index is 3 ± 0.11 under setting [1] and 2.96 ± 0.29 under setting [2].
For FSGSLVAALSATGPRFLAYFGSFA [TMEM175] the same measures were 2.91 ± 0.11 and 2.61 ± 0.37.
The matching figures for FSIPPTNHEIMPGGSVNITCVAVG [PTPRD]: 2.22 ± 0.17 and 2.06 ± 0.14.
The matching figures for FTLNPDKKTCRRINYCALNKPGCE [MATN2]: 2.64 ± 0.64 and 2.96 ± 0.45.
As for FVATFLRYAVVLNATWLVNSAAHL [SCD], the protein stability index came out at 3.31 ± 0.7 under setting [1] and 2.97 ± 0.33 under setting [2].
The matching figures for FVSIAQSEQESLLQQAQAQFRMAQ [SMG5]: 2.68 ± 0.31 and 3.08 ± 0.47.
